Data on 1 molecule can be found in patent publication US20230190868A1 (NATIONAL UNIVERSITY OF SINGAPORE, published 2023).

This assay deals with T1, cell-surface GRP78 (csGRP78) on mouse alveolar macrophages (primary AMs; MH-S cells) (mouse, UniProt P20029 20-655).
T1 construct: whole, on cells; Endogenous protein on mouse cells; the species follows from the cells used; also called Glucose-Regulated Protein 78 kDa
In words: confocal immunofluorescence on non-permeabilized primary alveolar macrophages, 1 µM rISM1. As to the method:
Cell-surface GRP78 (csGRP78) has been previously detected on mouse peritoneal macrophages (Misra, Gonzalez-Gronow et al., 2005) and human monocytes (Lu, Lai et al., 2010). Primary AMs were treated with recombinant ISM1 (rISM1) to determine if csGRP78 is present and serves as an ISM1 receptor on AMs. It was observed that rISM1 binds to csGRP78 on non-permeabilized AMs (FIG. 6C) and co-localized with GRP78 intracellularly (FIG. 6D), leading to AM apoptosis (FIG. 2K and FIG. 6E). Similarly, rISM1 induced apoptosis in immortalized mouse AM cells (MH-S) upon thapsigargin (TG) pretreatment (FIG. 6F), an ER stress inducer known to promote GRP78 translocation to the cell surface (Li, Ni et al., 2008). […] Increased AMs in Ism1^{Δ/Δ} lungs contributed towards protease-antiprotease imbalance, thus leading to spontaneous COPD in Ism1^{Δ/Δ} mice under ambient air.
(FIG. 6C). […] In FIG. 6C, representative confocal images of primary AMs for rISM1 (red) and GRP78 (green) co-localization after 1 µM rISM1 treatment for 1 hour are shown (Nuclei were stained with DAPI (blue)). Further, mouse AM cell line MH-S cells undergo ISM1 induced apoptosis when the cells were pre-treated with thapsigargin (TG), which induce ER stress and upregulate csGRP78. Denatured ISM1 (boiled) lost this pro-apoptotic function, indicating this pro-apoptotic activity is a function of the ISM1 protein. […]

T1 sequence (P20029 20-655): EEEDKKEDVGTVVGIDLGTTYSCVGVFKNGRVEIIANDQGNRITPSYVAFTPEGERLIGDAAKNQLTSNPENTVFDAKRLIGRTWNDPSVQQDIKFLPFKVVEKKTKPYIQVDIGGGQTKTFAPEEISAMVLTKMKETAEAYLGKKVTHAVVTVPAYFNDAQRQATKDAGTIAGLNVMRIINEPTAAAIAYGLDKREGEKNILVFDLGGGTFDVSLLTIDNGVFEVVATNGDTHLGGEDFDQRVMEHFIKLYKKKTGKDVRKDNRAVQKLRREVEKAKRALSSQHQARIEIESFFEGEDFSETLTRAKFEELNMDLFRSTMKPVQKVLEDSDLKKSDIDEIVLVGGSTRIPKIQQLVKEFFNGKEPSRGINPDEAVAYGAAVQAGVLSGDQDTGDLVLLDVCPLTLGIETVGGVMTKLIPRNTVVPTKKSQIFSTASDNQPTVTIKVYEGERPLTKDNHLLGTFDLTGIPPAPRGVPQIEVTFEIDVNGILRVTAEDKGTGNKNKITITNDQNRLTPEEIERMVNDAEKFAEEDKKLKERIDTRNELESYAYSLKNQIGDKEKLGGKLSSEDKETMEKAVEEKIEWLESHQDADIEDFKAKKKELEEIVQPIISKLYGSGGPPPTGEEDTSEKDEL

B1: recombinant ISM1 (rISM1), mouse mature form without signal peptide, 6xHis-tagged, expressed in E. coli (vector pET-M) (ligand)
chain: SDRQDAAAGNVSGSQLQNNLNLESDSTSETSFPLSKEAPEEHQVVHQPFPRQRFPPETGHPSLQRDGPRSFLLDLPNFPDLSKADINGQNPNIQVTIEVVDGPDSEAEKDQHPENKPSWSLPAPDWRAWWQRSLSLARTNSGDQDDKYDSTSDDSNFLSVPRGWDRPAPGHRTFETKEQPEYDSTDGEGDWSLWSVCSVTCGNGNQKRTRSCGYACIATESRTCDRPNCPGIEDTFRTAATEVSLLAGSEEFNATKLFEVDMDSCERWMSCKSEFLKKYMHKVINDLPSCPCSYPTEVAYSTADIFDRIKRKDFRWKDASGPKEKLEIYKPTARYCIRSMLSLESTTLAAQHCCYGDNMQLITRGKGAGTPNLISTEFSAELHYKVDVLPWIICKGDWSRYNEARPPNNGQKCTESPSDEDYIKQFQEAREYLEHHHHHH
notes: also called mouse rISM1
As to B1, the binding result is listed as “binds”.
